From publication PMC6042779

Target: SRC (UniProt P12931)
Assay: bead-immobilized peptide pulldown of SRC-GST
Details: reference: nonphosphorylated FAK peptide; sites Y397

FAK FERM-kinase linker region, 358-409 (from UniProt P34152) pY397 FAK peptide
binding against the reference: gained
